Data taken from the Human Domainome abundance scans (Beltran et al. 2025).
± gives the uncertainty stated by the source.

B1: Receptor-interacting serine/threonine-protein kinase 2, residues 438 to 518; numbered along this chain, O43353 (parent)
chain: QWIQSKREDIVNQMTEACLNQSLDALLSRDLIMKEDYELVSTKPTRTSKVRQLLDTTDIQGEEFAKVIVQKLKDNKQMGLQ

Variants of: B1
Experiment: abundance fitness (aPCA) (normalised: wild type 0, dead -1); higher = more abundant; growth selection in yeast, the domain comes from the species named
Settings: Homo sapiens

Abundance fitness, by site and new letter:
D58: V 0.041 ± 0.069; A 0.021 ± 0.053; N -0.141 ± 0.42; Q 0.041 ± 0.087; Y -0.259 ± 0.17; T -0.015 ± 0.07; E 0.107 ± 0.1; R -0.154 ± 0.058; P 0.172 ± 0.064; I -0.007 ± 0.13; C 0.035 ± 0.096; F 0.001 ± 0.17; H 0.026 ± 0.11; L -0.047 ± 0.071; M -0.033 ± 0.09; W -0.081 ± 0.08
T47: A 0.121 ± 0.084; W -0.333 ± 0.087; S -0.061 ± 0.091; M -0.431 ± 0.33; L -0.373 ± 0.097; F -0.493 ± 0.33; H 0.111 ± 0.17; D -0.152 ± 0.11; G -0.185 ± 0.064; Y -0.57 ± 0.25; E 0.201 ± 0.15; Q -0.145 ± 0.15; N -0.286 ± 0.3; C -0.254 ± 0.11; V -0.153 ± 0.085; K -0.031 ± 0.14; P -0.228 ± 0.073; R 0.049 ± 0.051
E63: N -0.646 ± 0.19; H -0.734 ± 0.18; K -0.441 ± 0.18; I -0.538 ± 0.14; V -0.592 ± 0.084; R -0.413 ± 0.062; C -0.527 ± 0.12; F -0.972 ± 0.18; T -0.362 ± 0.083; Q -0.485 ± 0.28; Y -0.839 ± 0.26; P -0.432 ± 0.068; G -0.475 ± 0.08; D -0.3 ± 0.22; L -0.684 ± 0.087
V50: E -0.538 ± 0.18; Y -0.761 ± 0.35; D -0.493 ± 0.22; G -0.679 ± 0.071; H -0.696 ± 0.21; P -0.53 ± 0.066; T -0.505 ± 0.095; W -0.903 ± 0.15; Q -0.612 ± 0.1; I -0.524 ± 0.16; S -0.389 ± 0.053; R -0.802 ± 0.079; N -0.737 ± 0.2; A -0.842 ± 0.089; L -0.817 ± 0.088
L54: C -0.45 ± 0.06; W -1.08 ± 0.16; T -0.925 ± 0.21; P -0.553 ± 0.099; E -0.3 ± 0.22; R -0.475 ± 0.048; K -0.408 ± 0.25; F -0.936 ± 0.31; D -0.452 ± 0.2; G -0.519 ± 0.045; Y -0.814 ± 0.22; S -0.649 ± 0.079; V -0.777 ± 0.097; Q -0.646 ± 0.12; A -0.345 ± 0.097; M -0.622 ± 0.17; H -0.542 ± 0.14
K66: A -0.172 ± 0.069; G -0.182 ± 0.042; F -1.05 ± 0.47; E 0.096 ± 0.08; Y -0.874 ± 0.42; M -0.192 ± 0.14; D -0.401 ± 0.2; L -0.555 ± 0.062; Q -0.135 ± 0.074; T -0.187 ± 0.13; I -0.757 ± 0.21; N -0.58 ± 0.43; V -0.702 ± 0.074; P -0.471 ± 0.059; R -0.166 ± 0.048; H -0.459 ± 0.12
R51: C -0.307 ± 0.066; T -0.255 ± 0.08; I -0.235 ± 0.079; G -0.407 ± 0.055; H -0.518 ± 0.11; P -0.501 ± 0.064; M -0.354 ± 0.16; Q -0.052 ± 0.17; K -0.071 ± 0.18; S -0.194 ± 0.047; E -0.273 ± 0.12; A -0.145 ± 0.055; L -0.254 ± 0.07; W -0.802 ± 0.17; N -0.207 ± 0.11; D -0.517 ± 0.092; V -0.273 ± 0.072
D55: K -0.469 ± 0.23; E -0.015 ± 0.09; H -0.665 ± 0.16; G -0.51 ± 0.05; Y -0.445 ± 0.071; P -0.676 ± 0.079; R -0.162 ± 0.046; T -0.313 ± 0.071; M -0.03 ± 0.14; N -0.347 ± 0.16; V -0.27 ± 0.065; Q -0.277 ± 0.13; S -0.153 ± 0.055; W -0.475 ± 0.064; L -0.132 ± 0.055; C -0.122 ± 0.092; I -0.168 ± 0.11
A65: L -0.949 ± 0.097; P -0.554 ± 0.062; G -0.6 ± 0.058; T -0.85 ± 0.12; F -1.12 ± 0.23; S -0.457 ± 0.062; Y -0.691 ± 0.12; R -0.649 ± 0.077; Q -0.743 ± 0.16; D -0.569 ± 0.13; H -0.44 ± 0.081; E -0.456 ± 0.15; N -0.389 ± 0.18; C -0.624 ± 0.12; V -0.933 ± 0.1; K -0.708 ± 0.17
R46: P -0.519 ± 0.1; T 0.02 ± 0.091; V -0.045 ± 0.034; L 0.143 ± 0.037; N -0.288 ± 0.22; M -0.411 ± 0.12; W -0.796 ± 0.072
G61: K 0.024 ± 0.19; V -0.253 ± 0.09; R -0.155 ± 0.054; L -0.531 ± 0.089; I -0.935 ± 0.32; D -0.022 ± 0.14; Y -0.279 ± 0.14; A -0.378 ± 0.1; Q -0.243 ± 0.094; C -0.083 ± 0.078; P -0.596 ± 0.086; F -0.604 ± 0.29; E -0.125 ± 0.15; T -0.085 ± 0.13; M -0.947 ± 0.45; N -0.055 ± 0.16
F64: Q -0.156 ± 0.12; T -0.142 ± 0.079; V -0.236 ± 0.058; L -0.295 ± 0.054; E -0.123 ± 0.11; Y -0.448 ± 0.17; W -0.384 ± 0.082; M -0.047 ± 0.11; P -0.248 ± 0.065; R -0.475 ± 0.042; A 0.131 ± 0.058; S -0.212 ± 0.053; D -0.17 ± 0.18; K -0.566 ± 0.19; C 0.112 ± 0.13; G -0.257 ± 0.054; I -0.269 ± 0.23
E62: D -0.648 ± 0.23; H -0.678 ± 0.13; F -0.741 ± 0.25; G -0.537 ± 0.069; Q -0.943 ± 0.15; S -0.627 ± 0.055; I -0.912 ± 0.31; A -0.555 ± 0.067; Y -0.913 ± 0.25; T -0.629 ± 0.081; K -0.798 ± 0.16; L -0.808 ± 0.094; M -0.545 ± 0.1; V -0.853 ± 0.092; P -0.493 ± 0.049; W -1.32 ± 0.3
K49: V -0.784 ± 0.22; Q -0.786 ± 0.21; T -0.761 ± 0.22; I -0.564 ± 0.29; R -0.283 ± 0.14; E -0.576 ± 0.33; C -0.81 ± 0.33; D -0.389 ± 0.19; W -0.722 ± 0.38; S -0.58 ± 0.12; H -0.628 ± 0.27; Y -0.625 ± 0.46; M -0.137 ± 0.23; A -0.586 ± 0.16; P -0.625 ± 0.13
L53: I -0.544 ± 0.16; T -0.417 ± 0.092; N -0.845 ± 0.22; A -0.396 ± 0.072; G -0.433 ± 0.057; M -0.517 ± 0.18; E -0.536 ± 0.14; R -0.643 ± 0.066; D -0.689 ± 0.21; W -0.595 ± 0.095; F -0.785 ± 0.24; C -0.433 ± 0.12; K -0.366 ± 0.26; H -0.666 ± 0.14; S -0.679 ± 0.086; Y -0.821 ± 0.18; V -0.56 ± 0.085; P -0.423 ± 0.064; Q -0.567 ± 0.12
S48: C -0.293 ± 0.1; V -0.534 ± 0.11; T -0.224 ± 0.1; I -0.923 ± 0.23; R -0.466 ± 0.065; L -0.04 ± 0.075; N -0.892 ± 0.28; P -0.651 ± 0.089; Y -0.644 ± 0.21; H -0.47 ± 0.2; Q 0.123 ± 0.099; W -0.819 ± 0.13; F -0.527 ± 0.22; D 0.065 ± 0.096; G -0.11 ± 0.055; E 0.542 ± 0.19; A 0.072 ± 0.06; M -0.142 ± 0.16
I59: C -0.029 ± 0.26; L 0.231 ± 0.23; V -0.171 ± 0.2; Y -0.342 ± 0.29; K 0.17 ± 0.26; S -0.29 ± 0.27; G 0.143 ± 0.29
T56: I 0.19 ± 0.15; E -0.332 ± 0.16; V 0.108 ± 0.056; A -0.161 ± 0.06; Y 0.046 ± 0.083; Q -0.024 ± 0.083; G -0.458 ± 0.061; C -0.105 ± 0.13; L 0.175 ± 0.061; P -0.612 ± 0.075; H -0.206 ± 0.16; N -0.572 ± 0.22; F 0.037 ± 0.12; R -0.533 ± 0.067; D -0.849 ± 0.24; W 0.125 ± 0.11; S -0.273 ± 0.058
T57: C 0.125 ± 0.11; S 0.128 ± 0.062; E -0.082 ± 0.14; H -0.268 ± 0.091; L -0.002 ± 0.049; P -0.04 ± 0.05; Y -0.658 ± 0.17; M 0.108 ± 0.1; W -0.738 ± 0.14; D -0.28 ± 0.078; V 0.046 ± 0.055; I 0.044 ± 0.25; F -0.392 ± 0.12; N -0.684 ± 0.37; Q 0.01 ± 0.089; G -0.004 ± 0.041; A 0.045 ± 0.051
Q60: H -0.199 ± 0.089; A -0.08 ± 0.053; F -0.378 ± 0.16; I -0.302 ± 0.15; G -0.014 ± 0.054; Y -0.008 ± 0.11; L -0.321 ± 0.055; W -0.745 ± 0.12; R -0.057 ± 0.047; M -0.188 ± 0.1; T -0.412 ± 0.08; K -0.361 ± 0.14; V -0.267 ± 0.056; E -0.021 ± 0.17; C -0.054 ± 0.065; N -0.353 ± 0.1; P -0.283 ± 0.06
V67: C -0.33 ± 0.14; F -0.945 ± 0.24; G -0.639 ± 0.07; E -0.294 ± 0.11; A -0.674 ± 0.077; D -0.453 ± 0.26
Q52: H -0.493 ± 0.15; A 0.082 ± 0.074; F -0.403 ± 0.14; D -0.526 ± 0.25; Y -0.77 ± 0.41; C -0.203 ± 0.12; P -0.551 ± 0.079; G -0.556 ± 0.056; S -0.196 ± 0.045; L -0.57 ± 0.084; V -0.603 ± 0.081; K -0.442 ± 0.24; M -0.42 ± 0.12; E -0.512 ± 0.089; W -0.011 ± 0.058
